Two molecules from article PMC6469964 can be followed below.

Read-outs that look alike come from different tables or passages of the source.

Data set [1] concerns the target T1, 6xHis-HNRNPK (mouse, UniProt P61979 1-463). In words: EMSA.
In data set [2] the target is T1, 6xHis-HNRNPK. In words: EMSA. The source holds these as a separate data set.

B1: mutant Repeat B RNA (ssRNA)
RNA: GCAACAGCAACUGCAACAGCAACAGCAACUGCAACUGCAACAGCAACUGCAACA
B1: the binding result in data set [1] is “no binding”.

B2: WT Repeat B RNA (ssRNA)
RNA: GCCCCAGCCCCUGCCCCAGCCCCAGCCCCUGCCCCUGCCCCAGCCCCUGCCCCA
For the molecule B2, the binding result in data set [2] is “binds”.
